Reference: patent US20240309103A1 (Regeneron, published 2024)

T1: human NPR1 on HEK293/hNPR1.myc.DDK cells (0 hANP) (human, UniProt P16066 33-1061)
T1 sequence: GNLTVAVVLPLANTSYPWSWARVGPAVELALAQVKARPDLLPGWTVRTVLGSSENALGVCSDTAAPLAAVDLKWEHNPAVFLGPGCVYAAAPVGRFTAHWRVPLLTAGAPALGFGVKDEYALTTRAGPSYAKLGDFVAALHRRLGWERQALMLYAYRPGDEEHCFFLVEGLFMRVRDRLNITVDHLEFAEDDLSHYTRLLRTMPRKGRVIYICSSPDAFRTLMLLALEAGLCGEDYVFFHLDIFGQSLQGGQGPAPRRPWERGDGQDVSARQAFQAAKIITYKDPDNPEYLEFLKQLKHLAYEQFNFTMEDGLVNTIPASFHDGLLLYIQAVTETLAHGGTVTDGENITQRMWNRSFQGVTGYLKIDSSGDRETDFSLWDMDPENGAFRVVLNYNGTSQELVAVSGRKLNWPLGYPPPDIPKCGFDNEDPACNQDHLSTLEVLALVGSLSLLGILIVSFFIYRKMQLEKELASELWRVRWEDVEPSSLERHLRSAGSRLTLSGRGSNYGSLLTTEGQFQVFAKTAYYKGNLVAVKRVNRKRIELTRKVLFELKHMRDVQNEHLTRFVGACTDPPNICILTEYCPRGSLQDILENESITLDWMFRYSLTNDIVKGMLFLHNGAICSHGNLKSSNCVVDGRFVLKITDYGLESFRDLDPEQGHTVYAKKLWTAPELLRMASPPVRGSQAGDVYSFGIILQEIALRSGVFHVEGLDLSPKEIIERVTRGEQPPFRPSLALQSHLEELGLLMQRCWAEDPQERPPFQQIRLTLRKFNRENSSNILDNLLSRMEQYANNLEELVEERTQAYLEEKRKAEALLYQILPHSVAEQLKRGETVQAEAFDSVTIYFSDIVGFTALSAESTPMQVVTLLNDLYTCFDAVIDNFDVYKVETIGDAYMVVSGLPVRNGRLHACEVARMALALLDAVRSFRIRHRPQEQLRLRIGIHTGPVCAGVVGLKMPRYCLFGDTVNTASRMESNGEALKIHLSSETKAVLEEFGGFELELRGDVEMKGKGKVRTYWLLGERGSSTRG

T2: human NPR1 on HEK293/hNPR1.myc.DDK cells with 10 nM hANP (NPR1-ANP complex) (human, UniProt P01160 124-151)
T2 construct: also called NPR1-ANP Complex on the Cell Surface
T2 sequence: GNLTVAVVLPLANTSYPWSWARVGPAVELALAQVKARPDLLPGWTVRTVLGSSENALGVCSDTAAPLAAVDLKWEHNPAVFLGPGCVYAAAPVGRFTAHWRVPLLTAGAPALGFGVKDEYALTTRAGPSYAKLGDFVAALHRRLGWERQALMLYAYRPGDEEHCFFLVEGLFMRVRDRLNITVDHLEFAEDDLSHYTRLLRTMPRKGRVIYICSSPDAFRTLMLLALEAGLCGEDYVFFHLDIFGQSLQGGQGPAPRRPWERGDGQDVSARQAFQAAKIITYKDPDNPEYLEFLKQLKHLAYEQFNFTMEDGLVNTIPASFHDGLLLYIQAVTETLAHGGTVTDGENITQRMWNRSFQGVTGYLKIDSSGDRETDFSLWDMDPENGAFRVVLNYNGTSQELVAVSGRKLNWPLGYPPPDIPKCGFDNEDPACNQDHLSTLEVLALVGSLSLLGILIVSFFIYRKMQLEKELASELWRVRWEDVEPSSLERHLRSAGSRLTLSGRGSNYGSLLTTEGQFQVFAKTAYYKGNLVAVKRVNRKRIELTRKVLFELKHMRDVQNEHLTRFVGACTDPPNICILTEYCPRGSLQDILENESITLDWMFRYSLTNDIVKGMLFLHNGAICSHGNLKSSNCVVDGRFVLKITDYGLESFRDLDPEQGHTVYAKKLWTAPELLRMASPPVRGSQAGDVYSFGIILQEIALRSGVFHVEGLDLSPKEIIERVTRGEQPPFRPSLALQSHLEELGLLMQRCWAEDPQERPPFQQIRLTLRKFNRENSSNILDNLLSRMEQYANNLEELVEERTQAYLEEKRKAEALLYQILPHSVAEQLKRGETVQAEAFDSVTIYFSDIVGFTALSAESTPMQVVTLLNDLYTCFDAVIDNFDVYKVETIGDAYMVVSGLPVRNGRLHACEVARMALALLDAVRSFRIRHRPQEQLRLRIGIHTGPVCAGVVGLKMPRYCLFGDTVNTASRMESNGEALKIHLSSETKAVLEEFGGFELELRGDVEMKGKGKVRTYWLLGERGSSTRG
T2 sequence (peptide): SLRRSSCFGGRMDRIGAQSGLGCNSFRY

T3: mNPR1-mFc (mouse)
T3 construct: also called mouse NPR1 extracellular domain expressed with a C-terminal mouse IgG2a
T3 chain: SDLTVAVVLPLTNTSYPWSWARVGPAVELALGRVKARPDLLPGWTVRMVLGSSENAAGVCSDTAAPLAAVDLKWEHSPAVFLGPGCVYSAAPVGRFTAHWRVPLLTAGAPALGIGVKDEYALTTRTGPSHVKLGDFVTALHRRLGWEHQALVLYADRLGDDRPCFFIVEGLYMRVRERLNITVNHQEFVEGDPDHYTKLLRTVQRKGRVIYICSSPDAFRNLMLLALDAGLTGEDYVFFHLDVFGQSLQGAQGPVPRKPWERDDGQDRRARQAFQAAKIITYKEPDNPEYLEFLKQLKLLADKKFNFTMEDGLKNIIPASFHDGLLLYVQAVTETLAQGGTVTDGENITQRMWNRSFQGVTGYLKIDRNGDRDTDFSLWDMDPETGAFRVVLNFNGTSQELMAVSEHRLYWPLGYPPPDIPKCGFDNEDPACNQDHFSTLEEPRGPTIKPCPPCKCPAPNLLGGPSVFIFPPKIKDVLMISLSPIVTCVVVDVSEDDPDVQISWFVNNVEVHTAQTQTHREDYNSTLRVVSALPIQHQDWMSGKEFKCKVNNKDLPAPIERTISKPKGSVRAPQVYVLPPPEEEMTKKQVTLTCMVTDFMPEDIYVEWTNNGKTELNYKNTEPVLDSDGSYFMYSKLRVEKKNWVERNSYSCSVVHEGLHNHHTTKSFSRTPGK


Key:
[1] = target: T1, human NPR1 on HEK293/hNPR1.myc.DDK …; test: cell-based or functional assay
[2] = target: T1, human NPR1 on HEK293/hNPR1.myc.DDK …; test: ECL cell binding (MSD), 0 hANP
Procedure: (§1) All cells were washed once with 1×PBS with Ca²⁺/Mg²⁺ and counted with a Cellometer™ Auto T4 cell counter (Nexcelom Bioscience). Approximately 2.0×10⁴ HEK293/hNPR1.myc.DDK or HEK293 cells were seeded separately onto 96-well carbon electrode plates (MULTI-ARRAY high bind plate, Meso Scale Discovery (MSD, Rockville, MD)) and incubated for 1 hour (h) at 37° C. Nonspecific binding sites were blocked by 2% BSA (w/v) in 1×PBS with Ca²⁺/Mg²⁺for 1 h at room temperature (RT). HEK293/hNPR1.myc. […] The plate-bound antibodies were detected with SULFO-TAG™-conjugated goat polyclonal anti-human IgG antibody specific for heavy and light chains (Jackson Immunoresearch, West Grove, PA) for 1 h, RT.
(§2) After washes, plates were developed with Read Buffer (MSD, Rockville, MD) according to manufacturer's recommended procedure and luminescent signals were recorded with a SECTOR Imager 600 (MSD, Rockville, MD). Luminescence intensity, measured in relative light units (RLU), was recorded to indicate the binding intensity of each antibody at the range of concentrations.
(§3) In addition, direct binding signals (RLU) were analyzed as a function of the antibody concentration and data were fitted with a sigmoidal (four-parameter logistic) dose-response model using R statistical package (open source).

[3] = target: T2, human NPR1 on HEK293/hNPR1.myc.DDK …; test: ECL cell binding (MSD), +10 nM hANP
Procedure: as §1, §2, §3

[4] = target: T3, mNPR1-mFc; test: SPR Biacore, mAb captured by anti-human Fc, 25C
Procedure: (§4) Equilibrium dissociation constant (KD) for different NPR1 reagents binding to purified anti-NPR1 monoclonal antibodies (mAbs) were determined using a real-time surface plasmon resonance based Biacore 4000 biosensor. All binding studies were performed in 10 mM HEPES, 150 mM NaCl, 3 mM EDTA, and 0.05% v/v Surfactant Tween-20, pH 7.4 (HBS-ET) running buffer at 25° C. and 37° C. The Biacore CM5 sensor chip surface was first derivatized by amine coupling with either mouse anti-human Fc specific mAb (GE Healthcare, #BR100839) or goat anti-human Fcy specific polyclonal antibody (Jackson ImmunoResearch Laboratories, #BR-1008-39) to capture anti-NPR1 mAbs.

[5] = target: T4, mfNPR1-mFc:hBNP complex (monkey; human, UniProt P16860 103-134); test: SPR Biacore, mAb captured by anti-human Fc, 37C
T4 construct: Receptor-Fc pre-complexed with 10-fold hBNP
Procedure: as §4

[6] = target: T3, mNPR1-mFc; test: SPR Biacore, mAb captured by anti-human Fc, 37C
Procedure: as §4

Binder | % Activation (vs ANP max), Expt 1 [1] [%] | % Activation (vs. ANP max), Expt II [1] [%] | EC50 (nM), calcium flux, Expt 1 [1] [nM] | EC50 (nM), calcium flux, Expt II [1] [nM] | EC50 [2] [nM] | Ratio at 3.7 nM Ab concentration of Cell Binding Signal (RLU) to HEK293/hNPR1.myc.DKK relative to parental HEK293 [2] [ratio] | EC50 [3] [nM] | Ratio at 3.7 nM Ab concentration of Cell Binding Signal (RLU) to HEK293/hNPR1.myc.DKK relative to parental HEK293 [3] [ratio] | 100 nM Ag Bound (RU) [4] [RU] | 100 nM Ag Bound (RU) [5] [RU] | Kd [5] [nM] | koff [5] [s⁻¹] | kon [5] [M⁻¹ s⁻¹] | t½ [5] [h] | 100 nM Ag Bound (RU) [6] [RU] | binding result [6] | binding result [4]
mAb25491 (antibody, human IgG4, V domains shown) VH: QVQLVQSGAEVMKPGASVKVSCKASGYTFTGYYIHWVRQAPGQGLEWMGWITPNSGATNYAQKFQGRVTLTRDTSISTAYMELTRLKSDDTAVYYCARGGQLEFFYYYYGMDVWGQGTTVTVSS VL: DIQMTQSPSSLSASAGDRVTITCRASQSIDSYLNWYQQKPGKAPKLLISATSGFQSGVPSRFSGSGSGTDFTLTISSLQPEDFGTYYCQQSYTTPITFGQGTRLEIK | 74.6 | 104 | 102 | 43.4 | 1.6 | 58 | 1 | 78 | 1 | 146 | 1.6 | 0.00011 | 68900 | 1.75 | 1 | no binding (tested: 100 nM) | 
mAb25502 (antibody, human IgG4, V domains shown) VH: QLQLQESGPGLVKPSETLSLTCTVSGGSISSSSYYWGWIRQPPGKGLEWIGSIYYSGSPYYIPSLKSRVTISVDTSKNQFSLKLSSVTAADTAMYYCARQGRGIARAGPFDYWGQGTLVTVSS VL: DIQMTQSPSSLSASVGDRVTITCRASQGISNYLAWYQEKPGKVPKLLIYAASTLQSGVPSRFSGSGSGTDFTLTITSLQSEDVATYYCQKYNSAPPWTFGQGTKVEIK |  |  |  |  |  |  |  | 14 | 1 | 139 | 5.65 | 0.000481 | 85200 | 0.4 | 1 | no binding (tested: 100 nM) | 
mAb22033 (antibody, human IgG4, V domains shown) VH: QVQLVQSGAEVKKPGASVTVSCKASGYTFTDYYMHWVRQAPGQGLEWMGWIKPNSGGTNSAQRFQGRITMTWDTSISTAYMELSRLRSDDTAVYYCSRGGPVMNYYYYYGMDVWGQGTTVTVSS VL: NIQMTQSPSSLSASVGDRVTITCRASQSIDSYLNWYQQKPGKAPKLLIYVASSLQSGVPSRFSGSGSGKDFTLTISSLQPEDFATYYCQQSYSIPTFGQGTRLEIK | 130 | 129 | 83.7 | 41.6 | 0.49 | 207 | 0.82 | 236 | 0 | 167 | 1.3 | 8.8e-05 | 67500 | 2.19 | 1 |  | no binding (tested: 100 nM)
mAb22035 (antibody, human IgG4, V domains shown) VH: EVQLVESGGGLVQPGRSLRLSCAASGFTFDDYAMHWVRQAPGKGLEWVSGISWNSGTIGYADSVKGRFTMSRDNAKNSLYLQMNSLRPEDTALYYCAKDMGVSLALWGAFDIWGQGTMVTVSS VL: DIQMTQSPSSLSASVGDKVTITCRASQNIRTYLNWYQQKPGKAPKVLISTASSLQSGVPSRFSGSGSGTDFTLTISSLQPEDFAVFYCQQSFGIPRTFGQGTKVEIK | 73.1 | 56.8 | 384 | > 200 | 2.3 | 151 | 0.89 | 220 | -1 | 286 | 0.368 | 9.48e-05 | 258000 | 2.03 | 0 |  | 
mAb25497 (antibody, human IgG4, V domains shown) VH: QVQLVQSGAEVKEPGASVKVSCKASGYTFTDYYIHWVRQAPGQGLEWMGWINLNSGGKNHAQKFQGRVTVTSDTSINTAYIELGRLRGDDTAVYYCSRGGGSHYYYYYHGMDVWGQGTTVTVSS VL: DIQMTQSPSSLSASVGDRITITCRASHSIDSYLNWYQQKPGKAPKLLIYPASTLQSGVPSRFSGSGSGTDFTLTISSLQPEDSAIYYCQQSYSTPLTFGGGTKVEIK | 71.1 | 103 | 72.6 | 56.4 | 1.5 | 50 | 0.87 | 87 | 1 | 100 | 2.9 | 0.000166 | 57400 | 1.16 | 1 | no binding (tested: 100 nM) | 
